# Legend:
# rbp1b_arath RANBP1B = rbp1b_arath RANBP1B (UniProt Q8RWG8)
# rbp1a_arath RANBP1A = rbp1a_arath RANBP1A (UniProt Q9LMK7)
# Sequence of rbp1a_arath RANBP1A (Q9LMK7 whole entry): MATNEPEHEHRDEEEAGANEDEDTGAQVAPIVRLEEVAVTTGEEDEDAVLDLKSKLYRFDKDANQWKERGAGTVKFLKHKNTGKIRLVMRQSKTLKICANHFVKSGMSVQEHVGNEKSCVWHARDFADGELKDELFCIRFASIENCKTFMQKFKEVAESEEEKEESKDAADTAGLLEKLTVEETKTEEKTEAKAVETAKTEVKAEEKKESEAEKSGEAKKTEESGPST
# Sequence of GTP-binding nuclear protein Ran-1 (Arabidopsis thaliana (Mouse-ear cress)), P41916 T24D (P41916 whole entry T24D): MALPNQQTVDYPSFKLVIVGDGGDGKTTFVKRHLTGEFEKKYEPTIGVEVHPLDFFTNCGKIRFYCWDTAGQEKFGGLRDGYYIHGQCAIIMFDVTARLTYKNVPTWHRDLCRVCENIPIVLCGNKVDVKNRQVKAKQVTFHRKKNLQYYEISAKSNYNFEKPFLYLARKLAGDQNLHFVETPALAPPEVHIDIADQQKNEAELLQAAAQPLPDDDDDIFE
# Sequence of rbp1b_arath RANBP1B (Q8RWG8 whole entry): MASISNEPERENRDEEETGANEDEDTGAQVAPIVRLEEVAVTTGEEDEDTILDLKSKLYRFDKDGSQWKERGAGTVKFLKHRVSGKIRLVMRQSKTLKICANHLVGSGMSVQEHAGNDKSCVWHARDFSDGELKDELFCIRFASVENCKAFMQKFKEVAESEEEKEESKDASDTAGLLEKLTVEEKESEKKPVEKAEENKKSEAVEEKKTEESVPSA
substance,measurement,setting,value
"GTP-binding nuclear protein Ran-1 (Arabidopsis thaliana (Mouse-ear cress)), P41916 T24D",effect of a mutation on the interaction,rbp1b_arath RANBP1B,disrupting interaction
same,effect of a mutation on the interaction,rbp1a_arath RANBP1A,disrupting interaction

# From IntAct's records for PubMed 9025305
